Measurements from patent US20230250191A1 (SHANGHAI JEMINCARE PHARMACEUTICAL, published 2023).
Numbering of substitutions follows the chain as printed.

B1: AB1904Am2 (antibody, V domains shown)
VH: EVQLVESGGGLVQPGGSLRLSCAVSGYSIRSGYSWNWVRQAPGKGLEWVSVITYAGSTNYADSVKGRFTISRDDSKNTFYLQMNSLRAEDTAVYYCARGSHYFGHWHFAVWGQGTLVTVSS
VL: DIQLTQSPSSLSASVGDRVTITCRASQSVADEWDSYMNWYQQKPGKAPKLLIYAASYLQSGVPSRFSGSGSGTDFTLTISSLQPEDFATYYCQQSHEDPYTFGQGTKLEIK
notes: IgG1 format
B2: AB1904Am11 (antibody, V domains shown)
VH: B1 VH with R30T, S100T
VL: B1 VL with A30N, W33A
notes: IgG1 format
B3: AB1904Am3 (antibody, V domains shown)
VH: B1 VH with R30T, S100T
VL: B1 VL with A30D, D31A, W33G
notes: IgG1 format
B4: AB1904Am5 (antibody, V domains shown)
VH: B1 VH with R30T
VL: B1 VL with A30D, W33Y
notes: IgG1 format
B5: AB1904Am6 (antibody, V domains shown)
VH: B1 VH with R30T, H101N
VL: B1 VL with A30D, D31S, W33G
notes: IgG1 format
B6: AB1904Am10 (antibody)
VL: DIQLTQSPSSLSASVGDRVTITCRASQSVGDEADSYMNWYQQKPGKAPKLLIYAASYLQSGVPSRFSGSGSGTDFTLTISSLQPEDFATYYCQQSHEDPYTFGQGTKLEIKRTVAAPSVFIFPPSDEQLKSGTASVVCLLNNFYPREAKVQWKVDNALQSGNSQESVTEQDSKDSTYSLSSTLTLSKADYEKHKVYACEVTHQGLSSPVTKSFNRGEC
VH: not shown
notes: IgG1 format
B7: AB1904Am15 (antibody)
VL: B6 VL
VH: EVQLVESGGGLVQPGGSLRLSCAVSGYSITSGYSWNWVRQAPGKGLEWVSVITYAGSTNYADSVKGRFTISRDDSKNTFYLQMNSLRAEDTAVYYCARGTHYFGHWHFAVWGQGTLVTVSSASTKGPSVFPLAPSSKSTSGGTAALGCLVKDYFPEPVTVSWNSGALTSGVHTFPAVLQSSGLYSLSSVVTVPSSSLGTQTYICNVNHKPSNTKVDKKVEPKSCDKTHTCPPCPAPELLGGPSVFLFPPKPKDTLYITREPEVTCVVVDVSHEDPEVKFNWYVDGVEVHNAKTKPREEQYNSTYRVVSVLTVLHQDWLNGKEYKCKVSNKALPAPIEKTISKAKGQPREPQVYTLPPSREEMTKNQVSLTCLVKGFYPSDIAVEWESNGQPENNYKTTPPVLDSDGSFFLYSKLTVDKSRWQQGNVFSCSVMHEALHNHYTQKSLSLSPGK
notes: Same variable regions as AB1904Am10

Tests used:
[1] = biological target: T1, cynomolgus monkey IgE CH3-CH4 (cynomolgus monkey); experiment: BLI (Octet), method of Example 2, biotinylated cynomolgus IgE CH3-CH4
T1 construct: domain: CH3-CH4; Custom protein; also called Biotin -cyno IgE CH3-CH4; Biotin-cyno IgE
Description: Detection of samples on machine (Octet Data Acquisition 11.1.0.11): First, samples were added to a 96-well plate (Greiner bio-one, 655209) with 200 µL/well according to the following table. The software parameters were then set, the plate temperature was set at 30° C., and the frequency of standard kinetic signals was collected at 5.0 Hz. Next, the CH1 sensor (Fortébio, 18-0039) with 1xPBST was pre-wet for 10 minutes, and then tested on the machine. Each cycle includes the following steps: 1) immersing in buffer for 60 s; 2) detecting whether the antigen non-specifically binds to the sensor; 3) regenerating with glycine solution at 10 mM pH 1.7; 4) immersing in buffer for 60 s; 5) immobilizating the antibody on the sensor for 30 s; 6) immersing the sensor in the buffer for 180 s; 7) Association of the antigen- antibody for 180 s; 8) dissociation of the antigen-antibody for 10 min; 9) regenerating the sensor.

[2] = biological target: T2, human FcRn (human, UniProt P55899 24-297; P61769 21-119); experiment: BLI (Octet RED96e), pH 6.0, FcRn captured through biotin-conjugated anti-His antibody, antibody 31.3-1000 nM
T2 construct: Bought protein; also called hFcRn
Description: (§1) The affinity of the antibody to human FcRn (Acro, FCN-H52W7) and cynomolgus monkey FcRn (Acro, FCM-C52W9) was determined according to the method of Example 2 using Octet RED96e (Fortebio). Wherein, human FcRn and cynomolgus FcRn were diluted to 5 µg/mL with 1xPBS (10 mM Na2HPO4.12H2O, 2 mM KH2PO4, 137 mM NaCl, 2.7 mM KCl, pH 6.0), respectively, and biotin-conjugated THETM His-tagged mouse monoclonal antibody was diluted to 2 µg/mL; the antibody to be tested was diluted with 1x PBST (1xPBS, 0.02% Tween 20, pH6.0), and the antibody dilution concentration ranged from 1000 nM - 31.3 nM.

[3] = biological target: T3, cynomolgus monkey FcRn (cynomolgus monkey, UniProt Q8SPV9 24-297; Q8SPW0 21-119); experiment: as above
T3 construct: Bought protein; also called Cynomolgus FcRn; cynomolgus FcRn
Description: as §1

T3 sequence (Q8SPV9 24-297 limits assumed, chain 1 of 2): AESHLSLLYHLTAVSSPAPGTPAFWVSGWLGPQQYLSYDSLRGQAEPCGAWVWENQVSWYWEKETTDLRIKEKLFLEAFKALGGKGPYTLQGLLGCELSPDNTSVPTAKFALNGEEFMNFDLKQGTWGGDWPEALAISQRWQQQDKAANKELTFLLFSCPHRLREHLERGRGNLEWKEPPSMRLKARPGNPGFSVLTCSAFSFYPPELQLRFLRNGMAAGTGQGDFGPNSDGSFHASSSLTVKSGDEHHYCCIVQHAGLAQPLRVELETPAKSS
T3 sequence (Q8SPW0 21-119 limits assumed, chain 2 of 2): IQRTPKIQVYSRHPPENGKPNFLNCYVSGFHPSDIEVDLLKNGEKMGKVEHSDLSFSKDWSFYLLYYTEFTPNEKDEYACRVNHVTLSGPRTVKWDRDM

| Kd [1] [nM] | koff [1] [s⁻¹] | kon [1] [M⁻¹ s⁻¹] | Kd [2] [nM] | koff [2] [s⁻¹] | kon [2] [M⁻¹ s⁻¹] | Kd [3] [nM] | koff [3] [s⁻¹] | kon [3] [M⁻¹ s⁻¹] | Binder |
| --- | --- | --- | --- | --- | --- | --- | --- | --- | --- |
| 0.11 | 0.000222 | 2.06e+06 | – | – | – | – | – | – | B1 |
| 0.17 | 0.000248 | 1.5e+06 | – | – | – | – | – | – | B2 |
| 0.16 | 0.000272 | 1.7e+06 | – | – | – | – | – | – | B3 |
| 0.15 | 0.000267 | 1.77e+06 | – | – | – | – | – | – | B4 |
| 0.18 | 0.000308 | 1.74e+06 | – | – | – | – | – | – | B5 |
| – | – | – | 98.7 | 0.121 | 1.22e+06 | 91.4 | 0.106 | 1.16e+06 | B6 |
| – | – | – | 32.8 | 0.0287 | 875000 | 31.5 | 0.0291 | 922000 | B7 |
